Target: BG505_mut123_N241 SOSIP (HIV-1 (subtype A, BG505)) (UniProt Q2N0S6)
Assay: negative-stain EM

B1: 13B Fab (Fab, V domains shown)
VH: LEESGGGLVQPEGSLTLTCKASGFDFSDYHVQWVRQSPGKGLEFIGGIAYTGNIYYASWAKGRFTISKTSSTTVTLQMTTLTAADTATYFCARAYGYASAPYAQYFNLWGPGTLVTVSS
VL: DIVMTQTPASVSEPVGGTVTINCQASQSRGNNYLSWYQQKPGQSPSLLIYRTSTLASGVPSRFKGSGSGTQFTLTISDLECADAATYYCLYGYYSSRNPDFAFGGGTEVVVK
percent of particles that were trimers with no Fab bound: 57%
percent of particles with one Fab bound: 43%

Reference: article PMC7081899
